The text below walks through data of patent US20210032365A1 (Chugai, published 2021).

The target in test [1] is T1, human C1s (human, UniProt P09871 16-688).
T1 construct: Analyte in the Biacore assays; also called hC1s; serum-derived human C1s (CompTech)
T1 sequence: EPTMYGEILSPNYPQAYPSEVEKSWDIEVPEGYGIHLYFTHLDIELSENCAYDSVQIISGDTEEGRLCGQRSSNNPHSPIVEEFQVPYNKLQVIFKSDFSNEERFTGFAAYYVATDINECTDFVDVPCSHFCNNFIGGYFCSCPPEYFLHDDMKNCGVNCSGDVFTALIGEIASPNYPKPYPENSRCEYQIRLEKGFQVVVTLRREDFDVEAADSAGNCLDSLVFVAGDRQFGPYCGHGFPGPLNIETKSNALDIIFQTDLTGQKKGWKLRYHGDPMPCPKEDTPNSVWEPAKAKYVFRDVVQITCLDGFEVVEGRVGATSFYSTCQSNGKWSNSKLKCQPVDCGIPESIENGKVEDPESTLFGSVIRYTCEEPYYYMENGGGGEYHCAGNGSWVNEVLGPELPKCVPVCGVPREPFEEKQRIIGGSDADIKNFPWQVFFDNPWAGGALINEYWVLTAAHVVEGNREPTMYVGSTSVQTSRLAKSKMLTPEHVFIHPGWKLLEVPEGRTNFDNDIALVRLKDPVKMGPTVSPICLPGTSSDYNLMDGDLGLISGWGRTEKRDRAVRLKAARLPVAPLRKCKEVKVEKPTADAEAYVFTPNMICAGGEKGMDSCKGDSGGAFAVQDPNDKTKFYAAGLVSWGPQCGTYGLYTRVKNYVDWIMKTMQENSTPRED
Nature of the test: SPR (Biacore T200, 37C), Ab captured on protein A/G; pH 7.4, 1.2 mM Ca. As to the method: (§1) All variants were transiently expressed and purified by the method described above. The binding affinity of each histidine-substituted variant at pH 7.4 and pH 5.8 was determined at 37 degrees C. using Biacore T200 instrument (GE Healthcare). Recombinant Protein A/G (Pierce) was immobilized onto all flow cells of a CM4 sensor chip using an amine coupling kit (GE Healthcare). Antibodies and analytes were prepared in 7(+) buffer (20 mM ACES, 150 mM NaCl, 1.2 mM CaCl2, 0.05% Tween 20, 0.005% NaN3, pH 7.4), 5(+) buffer (20 mM ACES, 150 mM NaCl, 1.2 mM CaCl2, 0.05% Tween 20, 0.005% NaN3, pH 5.8), or 5(−) buffer (20 mM ACES, 150 mM NaCl, 3 micro M CaCl2, 0.05% Tween 20, 0.005% NaN3, pH 5.8). Each antibody was captured onto the sensor surface by protein A/G. Antibody capture levels were aimed at 200 resonance unit (RU). Serum-derived human C1s (CompTech) or recombinant C1s prepared in EXAMPLE 1 was injected at 50 nM, followed by dissociation. The sensor surface was regenerated in each cycle with 10 mM Glycine-HCl, pH 1.5. […] The ratio of KD 5.8+ to KD 7.4+(“KD 5+/7+”) and that of KD 5.8− to KD 7.4+(“KD 5−/7+”) were calculated. When the KD 5+/7+ or KD 5−/7+ of a variant is larger than that of the parent antibody IPN009VH2-SG4GK/IPN009VK3-SK1, that variant is considered to be “pH”- or “pH and Ca”-dependent, respectively. When binding response in 5(+) buffer and/or in 5(−) buffer of a variant is much lower than that of IPN09VH2/IPN009VK3, that variant is also considered as “pH”- and/or “pH and Ca”-dependent. Therefore, such mutations are effective to generate “pH”- and/or “pH and Ca”-dependent antibody. To further enhance “pH” and/or “pH and Ca” dependency, a combination of histidine mutations was conducted. Antibodies with combinations of histidine mutations were evaluated using Biacore by the method described above.
Background: SPR reads the build-up and loss of mass on a sensor chip optically.

For test [2], the target named is T1, human C1s. Nature of the test: SPR (Biacore T200, 37C), Ab captured on protein A/G; pH 5.8, 1.2 mM Ca. On the procedure: as §1
Test [3] addresses T1, human C1s. Nature of the test: SPR (Biacore T200, 37C), Ab captured on protein A/G; pH 5.8, 3 uM Ca. On the procedure: as §1
The target in test [4] is T1, human C1s. Description: SPR; KD at pH 5.8 (1.2 mM Ca) over KD at pH 7.4 (1.2 mM Ca). On the procedure: as §1
In test [5] the target is T1, human C1s. Nature of the test: SPR; KD at pH 5.8 (3 uM Ca) over KD at pH 7.4 (1.2 mM Ca). On the procedure: as §1
Test [6] deals with T2, human C1s (human, UniProt P09871 16-688).
T2 construct: also called hC1s; serum-derived human C1s (CompTech)
T2 sequence: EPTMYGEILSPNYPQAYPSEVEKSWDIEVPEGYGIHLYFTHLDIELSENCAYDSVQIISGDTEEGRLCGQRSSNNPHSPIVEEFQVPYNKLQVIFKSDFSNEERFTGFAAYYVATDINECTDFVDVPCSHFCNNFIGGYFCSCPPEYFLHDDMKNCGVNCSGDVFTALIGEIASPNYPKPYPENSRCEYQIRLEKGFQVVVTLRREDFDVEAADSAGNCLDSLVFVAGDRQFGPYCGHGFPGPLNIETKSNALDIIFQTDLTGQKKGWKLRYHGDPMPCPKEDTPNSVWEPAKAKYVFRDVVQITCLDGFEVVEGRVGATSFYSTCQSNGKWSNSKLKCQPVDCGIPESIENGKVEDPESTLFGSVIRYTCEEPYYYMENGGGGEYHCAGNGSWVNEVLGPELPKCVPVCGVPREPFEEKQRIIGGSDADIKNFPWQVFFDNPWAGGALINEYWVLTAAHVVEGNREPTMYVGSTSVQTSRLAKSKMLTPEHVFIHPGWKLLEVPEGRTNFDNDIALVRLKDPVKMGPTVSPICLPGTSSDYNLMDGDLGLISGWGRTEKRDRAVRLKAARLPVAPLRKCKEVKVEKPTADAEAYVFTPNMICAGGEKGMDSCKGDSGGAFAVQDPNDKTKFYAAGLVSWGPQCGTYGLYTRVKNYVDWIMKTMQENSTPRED
Nature of the test: SPR; KD pH 5.8 1.2 mM Ca / KD pH 7.4 1.2 mM Ca. On the procedure:
as §1

The target of test [7] is T2, human C1s. Nature of the test: SPR, Ab captured; pH 5.8, 3 uM Ca. On the procedure:
as §1

Test [8] concerns the target T2, human C1s. Nature of the test: SPR; KD pH 5.8 3 uM Ca / KD pH 7.4 1.2 mM Ca. As to the method: as §1
Test [9] concerns the target T2, human C1s. Nature of the test: SPR, Ab captured; pH 7.4, 1.2 mM Ca. As to the method:
as §1

Test [10] has as its target T2, human C1s. Nature of the test: SPR, Ab captured; pH 5.8, 1.2 mM Ca. As to the method:
as §1

B1: C1_IPN92H0288-SG4GK/IPN93L0058-SK1 (antibody, human IgG4 S228P, kappa)
heavy: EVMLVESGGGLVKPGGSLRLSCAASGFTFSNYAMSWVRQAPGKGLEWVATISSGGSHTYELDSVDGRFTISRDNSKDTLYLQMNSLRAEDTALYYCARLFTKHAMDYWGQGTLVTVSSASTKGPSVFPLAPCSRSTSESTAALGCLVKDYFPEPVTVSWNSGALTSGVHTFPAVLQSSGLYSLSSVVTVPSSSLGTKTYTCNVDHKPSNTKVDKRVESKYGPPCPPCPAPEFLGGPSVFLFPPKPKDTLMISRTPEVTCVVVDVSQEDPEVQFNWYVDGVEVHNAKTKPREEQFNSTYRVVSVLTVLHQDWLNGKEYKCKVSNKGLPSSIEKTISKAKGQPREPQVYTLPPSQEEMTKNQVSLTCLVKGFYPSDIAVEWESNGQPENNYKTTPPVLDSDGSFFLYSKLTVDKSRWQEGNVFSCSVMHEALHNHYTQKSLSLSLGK
light: QIVLTQSPATLSLSPGERATLSCTASSEVSSSYLHWYQQKPGKAPKLWIYSTSNLASGVPSRFSGSGSGTDYTLTISSLQPEDFATYYCHQYYRLHPITFGQGTKLEIKRTVAAPSVFIFPPSDEQLKSGTASVVCLLNNFYPREAKVQWKVDNALQSGNSQESVTEQDSKDSTYSLSSTLTLSKADYEKHKVYACEVTHQGLSSPVTKSFNRGEC
notes: also called IPN92H0288/IPN93L0058
On to B1, for which the koff in test [1] came out at 0.000548 s⁻¹; in test [2], 0.0143 s⁻¹; in test [3], 0.00401 s⁻¹. Further, the results for the association rate constant (kon) in test [1], in [2] and in test [3] were 654000 M⁻¹ s⁻¹, 732000 M⁻¹ s⁻¹ and 504000 M⁻¹ s⁻¹, respectively. For the same molecule, the “KD 5(+)/7(+)” value in test [4] worked out at 23.3. For the same molecule, the “KD 5(-)/7(+)” value in [5] worked out at 9.5.

B2: C1_IPN92H0033-SG4GK/IPN009VK3-SK1 (antibody, human IgG4 S228P, kappa)
heavy: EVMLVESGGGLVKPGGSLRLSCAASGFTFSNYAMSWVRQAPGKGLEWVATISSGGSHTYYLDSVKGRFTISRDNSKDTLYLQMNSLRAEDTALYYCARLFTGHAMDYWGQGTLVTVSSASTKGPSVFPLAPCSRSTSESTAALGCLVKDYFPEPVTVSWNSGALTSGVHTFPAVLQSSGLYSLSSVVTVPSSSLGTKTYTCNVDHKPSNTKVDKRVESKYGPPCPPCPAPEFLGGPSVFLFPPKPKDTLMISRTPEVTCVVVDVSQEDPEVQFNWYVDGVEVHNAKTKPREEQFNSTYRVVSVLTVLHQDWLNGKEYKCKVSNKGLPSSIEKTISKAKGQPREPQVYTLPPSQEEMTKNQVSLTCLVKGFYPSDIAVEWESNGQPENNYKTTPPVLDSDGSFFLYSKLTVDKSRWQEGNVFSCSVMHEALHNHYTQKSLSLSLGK
light: QIVLTQSPATLSLSPGERATLSCTASSSVSSSYLHWYQQKPGKAPKLWIYSTSNLASGVPSRFSGSGSGTDYTLTISSLQPEDFATYYCHQYYRLPPITFGQGTKLEIKRTVAAPSVFIFPPSDEQLKSGTASVVCLLNNFYPREAKVQWKVDNALQSGNSQESVTEQDSKDSTYSLSSTLTLSKADYEKHKVYACEVTHQGLSSPVTKSFNRGEC
notes: VH = IPN009VH2 with Y99H (Kabat); also called IPN92H0033/IPN009VK3
For the molecule B2, the “KD 5(+)/7(+)” value in test [6] stood at 0.7. The figures for the koff in [7], in test [9] and in [10] were 0.00635 s⁻¹, 0.00026 s⁻¹ and 0.000372 s⁻¹, respectively. In addition, the kon in [7] turned out to be 664000 M⁻¹ s⁻¹; in [9] it was 328000 M⁻¹ s⁻¹; in test [10], 722000 M⁻¹ s⁻¹. For the same molecule, the “KD 5(-)/7(+)” value in test [8] was found to be 12.1.

B3: C1_IPN92H0307-SG4GK/IPN93L0058-SK1 (antibody, human IgG4 S228P, kappa)
heavy: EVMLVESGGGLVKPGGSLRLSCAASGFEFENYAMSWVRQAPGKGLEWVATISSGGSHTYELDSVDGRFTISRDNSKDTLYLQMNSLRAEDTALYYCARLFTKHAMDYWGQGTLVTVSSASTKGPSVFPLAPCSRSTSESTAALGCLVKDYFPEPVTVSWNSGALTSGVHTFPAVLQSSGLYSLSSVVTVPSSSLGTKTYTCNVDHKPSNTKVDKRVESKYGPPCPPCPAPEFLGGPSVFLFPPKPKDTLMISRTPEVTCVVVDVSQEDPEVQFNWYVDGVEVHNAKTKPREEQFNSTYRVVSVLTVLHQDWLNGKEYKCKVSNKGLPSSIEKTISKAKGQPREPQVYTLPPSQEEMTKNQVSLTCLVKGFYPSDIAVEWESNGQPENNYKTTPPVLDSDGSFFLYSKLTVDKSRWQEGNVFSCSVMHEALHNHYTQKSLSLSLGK
light: QIVLTQSPATLSLSPGERATLSCTASSEVSSSYLHWYQQKPGKAPKLWIYSTSNLASGVPSRFSGSGSGTDYTLTISSLQPEDFATYYCHQYYRLHPITFGQGTKLEIKRTVAAPSVFIFPPSDEQLKSGTASVVCLLNNFYPREAKVQWKVDNALQSGNSQESVTEQDSKDSTYSLSSTLTLSKADYEKHKVYACEVTHQGLSSPVTKSFNRGEC
notes: also called IPN92H0307/IPN93L0058
For B3, the koff is 0.000863 s⁻¹ in test [1], 0.0142 s⁻¹ in test [2] and 0.00196 s⁻¹ in test [3]. The kon is 446000 M⁻¹ s⁻¹ in [1], 731000 M⁻¹ s⁻¹ in [2] and 396000 M⁻¹ s⁻¹ in test [3]. Moreover, the “KD 5(+)/7(+)” value in test [4] was 10.1. Besides, the “KD 5(-)/7(+)” value in test [5] came out at 2.56.

As a reminder, the koff is the first-order rate constant of dissociation. The kon is the second-order rate constant of association.
